Laboratory results as given in doi:10.1101/2023.06.16.545308 (bioRxiv, 2023).
Read-outs that look alike come from different tables or passages of the source.

Tests used:
[1] = molecular target: T1, human transporter associated with antigen processing (TAP), heterodimer of TAP1 and TAP2 (human, UniProt Q03518;Q03519); assay: cryo-EM structure
[2] = molecular target: T1, human transporter associated with …; assay: cryo-EM structure; remark: listed apart in the source

T1 sequence (Q03518 whole entry, chain 1 of 2): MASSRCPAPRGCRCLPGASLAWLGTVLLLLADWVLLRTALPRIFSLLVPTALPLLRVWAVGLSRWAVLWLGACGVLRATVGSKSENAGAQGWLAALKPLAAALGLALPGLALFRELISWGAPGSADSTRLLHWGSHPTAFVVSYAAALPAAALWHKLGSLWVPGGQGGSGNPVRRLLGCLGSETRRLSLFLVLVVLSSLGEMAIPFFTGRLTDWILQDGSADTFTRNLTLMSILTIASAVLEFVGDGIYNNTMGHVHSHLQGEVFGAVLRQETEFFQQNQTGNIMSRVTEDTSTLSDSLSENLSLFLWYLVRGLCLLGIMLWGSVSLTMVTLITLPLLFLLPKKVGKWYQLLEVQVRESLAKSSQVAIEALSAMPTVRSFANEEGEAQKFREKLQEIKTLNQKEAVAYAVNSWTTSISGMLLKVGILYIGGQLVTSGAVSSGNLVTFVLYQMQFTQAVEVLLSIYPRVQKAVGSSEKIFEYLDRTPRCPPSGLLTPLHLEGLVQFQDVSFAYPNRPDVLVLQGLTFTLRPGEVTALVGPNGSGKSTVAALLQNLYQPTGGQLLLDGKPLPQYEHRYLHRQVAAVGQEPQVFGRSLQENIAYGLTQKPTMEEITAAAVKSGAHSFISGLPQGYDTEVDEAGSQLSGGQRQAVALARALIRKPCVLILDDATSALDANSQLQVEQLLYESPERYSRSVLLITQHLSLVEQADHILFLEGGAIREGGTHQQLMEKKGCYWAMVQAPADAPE
T1 sequence (Q03519 whole entry, chain 2 of 2): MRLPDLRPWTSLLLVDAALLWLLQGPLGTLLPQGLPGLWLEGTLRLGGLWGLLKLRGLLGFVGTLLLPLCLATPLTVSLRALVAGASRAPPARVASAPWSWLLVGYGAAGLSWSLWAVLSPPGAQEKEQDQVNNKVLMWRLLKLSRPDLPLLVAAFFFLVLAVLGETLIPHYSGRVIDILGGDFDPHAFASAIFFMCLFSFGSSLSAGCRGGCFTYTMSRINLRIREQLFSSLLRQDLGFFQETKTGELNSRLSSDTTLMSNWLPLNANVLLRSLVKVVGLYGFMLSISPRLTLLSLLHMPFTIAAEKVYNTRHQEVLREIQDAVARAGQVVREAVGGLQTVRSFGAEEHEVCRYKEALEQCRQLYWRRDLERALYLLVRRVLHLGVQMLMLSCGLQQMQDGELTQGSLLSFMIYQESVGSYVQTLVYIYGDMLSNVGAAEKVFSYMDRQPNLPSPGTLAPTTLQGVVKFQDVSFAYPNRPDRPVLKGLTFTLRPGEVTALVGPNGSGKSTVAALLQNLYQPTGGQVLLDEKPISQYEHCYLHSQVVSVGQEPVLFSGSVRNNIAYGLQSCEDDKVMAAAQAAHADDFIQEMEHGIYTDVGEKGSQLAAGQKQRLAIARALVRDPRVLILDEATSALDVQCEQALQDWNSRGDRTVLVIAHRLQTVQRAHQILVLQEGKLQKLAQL

Binder	binding result [1]	binding result [2]
ILKEPVHGV [a2 peptide (9-mer presented by HLA-A2)]	binds	
RRYSTEL [b27’’ peptide (7-mer)]		binds
RRYQKSTEL [b27 peptide (9-mer presented by HLA-B27)]	binds	
